# Laboratory results from the DeepSol protein solubility set.
# Experiment: soluble on expression in E. coli; label from the status in PepcDB or PDB records
row,Sequence,soluble on expression in E. coli
1,MQTISDNAANAIQEIFGRSKALIGMIHCPAFPGAPRYRNASMDAIYDACMRDAERLIEGGMHGLIVENHGDVPFSKPDDIGPETSAFMSVVTDRIVRTAGVPVGINVLANAPIPAFAIAKAGGAKFIRVNQWANAYVANEGFMEGRAAEAMRYRSLLRAEHIKVFADSHVKHGAHAITADRSIDELTRDLAFFDADGVIATGQRTGNSASLEEIEEIGAATHLPLLVGSGVNEGNIVEILKRTSGVIVASSLKEGGVWWNPVELARVRSFVAAARPGLEALEHHHHHH,soluble
2,MPDVPETVGTPDGSTEFEHRPTTDQSFENALAKARNGTRLTVDDAVELFTTGTDRDGIDHDRKEQVLEAADRRRAEVVGDEVTFVANLNNNVTTACNTGCLFCNFKDRSEQFRSDYQEDHGGFTKTPSESRQIVQDALDRGIYEVCSVSGLHPALALDTEHREILETSDRGDLNYRSPDEYETDPATYCEQLDAMNVGDIHLHSMTPEEAYHARRGTDWSYEEVFSRLQDAGLDSVPGTAAEILVDEVRDVICPGKIRTDEWLEAMAAAASVGLDMTSTMMYGHVENEYHRALHLQRIRDLQDRTGAITEFVPLSFVHEETPLYERGMVDGGATVDEDELMIAVSRLFLDNVDHIQASWVKYGDTQGLKMLTCGADDFMGTILSEEITKRAGGDYGEFRSFQEYADMITAIGRTPVERSTDYEQRRVIDPDADVLGPQLGPRADGTPLLD,not soluble
3,MNINILLSTYNGERFLAEQIQSIQRQTVNDWTLLIRDDGSTDGTQDIIRTFVKEDKRIQWINEGQTENLGVIKNFYTLLKHQKADVYFFSDQDDIWLDNKLEVTLLEAQKHEMTAPLLVYTDLKVVTQHLAVCHDSMIKTQSGHANTSLLQELTENTVTGGTMMITHALAEEWTTCDGLLMHDWYLALLASAIGKLVYLDIPTELYRQHDANVLGARTWSKRMKNWLTPHHLVNKYWWLITSSQKQAQLLLDLPLKPNDHELVTAYVSLLDMPFTKRLATLKRYGFRKNRIFHTFIFRSLVVTLFGYRRK,not soluble
4,MGSDKIHHHHHHENLYFQGMWKSISQVLAEQFGAYYFIKHKEKLYSGEMNEIWLINDEVQTVFVKINERSYRSMFRAEADQLALLAKTNSINVPLVYGIGNSQGHSFLLLEALNKSKNKQSSFTIFAEKIAQLHQIQGPDKYGLDFDTWLGPIYQPNDWQTSWAKFFSENRIGWQLQICKEKGLIFGNIDLIVQIVADTLSKHNPKPSILHGNLWIENCIQVDDKIFVCNPACYWGDRECDIAFSSLFEPFPTNFYQRYNEIYPLEEGYLERKLIYQLYYLLNFSYRYYNKKQSYVSLTQKLINQILHKIDK,soluble
5,MSLTAIKHVAISCRRALTKCAKIGHTTVSVSRSLRKLSPTAFKTLRQAIAKVGHLNIMGQKIRLNDRELAANKVIMAVKKEEISKGILDPSQFTPGQHIFKTLAEVQKSPIFNLIKGMPKGGALHAHDTALCSTDYLISLTYRKNLWICTAEEGCKAIAFRFSKEEPKEKPVKESIWEPMEEFRERRGEENVTKYLTRRFSMYPFSKFISNNQAWAHFMGIFILLDGLLCHAPIWAEYYYNALKEFAEDGVQYLELRSLLPPLYCIDGDMLTIRDTVAIYNSELERFRADHPDFIGSKLIYAPLRGVEPSVVEQYVKTAVELNKEFPNFMVGFDLVGQEELGRPLIDFVEPLLKMPEHINFYFHAGETNWFGSPIDENLVDAILLGTKRIGHGYALTKHPMMMRLAKLLGIAIEVCPVSNQVLQLGVDYRNHPAALLLAANVPIVISSDDPSFWHCAPLSHDFYFAFLGIAPMKADLRFLKSLAINSIRYSALVGEEKRVGYRKWQEKWDKWIDDVVEHKYCEGHHHHHH,not soluble
6,MGSDKIHHHHHHMKHEPLELGLKIEDAILVNEKLKDFVVYKSGKPRIDFKNKEAMKEYNIAILGHVFGLDMDFHEDALIPTPINRYLFIKNIFDEKDDIKDVLEIGTGSGIISILIAKYFECNVTATDTVSDYLKIAKDNISKNNLTSKINLIDSKGKIIFDIPELKNKKFDLIISYPPYYADNSVASKRSFGGAFASEVELIGGGAYGEVFSQKIIEEGMDHLNNGGIVAIMFPEKPFERRKFVEDKILELGLTLEKSEITTGKRIRHIIKAKKE,not soluble
7,MKRSNTVRLVVSKEQHEVLKRLGIATAKCWNEVNWLRMKQYKEGKRVDFGITEKAVYEKYKSVLRVNAQQVARKNAEDWRSFFSLTREKKEGKLPSWFKPRPPGYWKDGRLIVIIRNDRYTVDERNRVVYLKDFNLSLKFKGRLKWHGKQGRLEIIYDEARKIWYAHIPVEVETEKVKEGIKASIDLGIVNLATVYVEDGSWYLFKGGSALSHYENYSKRITIVQKTLHRHRQRRSRRLKLLHEKRSRFLKHALNSMVRRIMEILREKNVGEVVVGYPKEIAKHHGNKLTVNFWNYSYIIKRLEDIGEELGIKVITVDEAYTSKTCSLCGEAHEDGRVKRGLFVCPRTRKAINADLNGAINILHIPESRGSEGNFHRGIGVIGLKTQPVTLSDLSKIKNHYNYSISDYTILHYIQPLEHHHHHH,soluble
8,MESGPAVCCQDPRAELVDRVAAINVAHLEEADEGPEPARNGVDPPPRARAASVIPGSASRPTPVRPSLSARKFSLQERPAGSCLGAQVGPYSTGPASHISPRSWRRPTIESHRVAISDTEDCVQLNQYKLQSEIGKGAYGVVRLAYNESEDRHYAMKVLSKKKLLKQYGFPRRPPPRGSQATQGGPAKQLLPLERVYQEIAILKKLDHVNVVKLIEVLDDPAEDNLYLVFDLLRKGPVMEVPCDKPFPEEQARLYLRDIILGLEYLHCQKIVHRDIKPSNLLLGDDGHVKIADFGVSNQFEGNDAQLSSTAGTPAFMAPEAISDSGQSFSGKALDVWATGVTLYCFVYGKCPFIDDYILTLHRKIKNEAVVFPEEPEVSEDLKDLILRMLDKNPETRIGVSDIKLHPWVTKHGEEPLPSEEEHCSVVEVTEEEVKNSVRLIPSWTTVILVKSMLRKRSFGNPFEPQARREERSMSAPGSLLMKEGCGEGCKSPELPGVQEDEAAS,soluble
9,MTDYDVLRVFCAPNGGYGNELGVVRDGSVLPEPERRQELAAKLGFSETVFVDDPERGVVDIYTPTLRLPFAGHPCVGTAWLLDVPELVTRAGVVGARLDGEFSWIEARPEWAPPRTLRQYAAVAEVDDLAVPPKGEWVYAWAWEDEAAGRVRARAFPGRDDGIDEDEATGAAALLLTGRLGRALNITQGVGSQILTAPQPEGWVEIGGRVRLERLEHHHHHH,not soluble
10,MKQFGLAAFDELKDGKYNDVNKTILEKQSVELRDQLMVFQERLVEFAKKHNSELQASPEFRSKFMHMCSSIGIDPLSLFDRDKHLFTVNDFYYEVCLKVIEICRQTKDMNGGVISFQELEKVHFRKLNVGLDDLEKSIDMLKSLECFEIFQIRGKKFLRSVPNELTSDQTKILEICSILGYSSISLLKANLGWEAVRSKSALDEMVANGLLWIDYQGGAEALYWDPSWITRQL,soluble
11,MRYDVLARAGFARRGNLHLPHSIVETPVFMPVGTQGTMKGIVPEQLVSMDCRILLCNTYHLGHRPGHERVKAAGGLHKMMNWNRSILTDSGGFQMVSLSKLMTVDENGVNFESPHTGEMMALPPEKSIEIQQALGADIMMQLDHVIHVLTTGDIVKEAMHRSIRWLDRCKVAHTRDDQAMFPILQGGLNLELRKECAKEMAKRAKVGIAIGGLSGGEEKDHFWRVVAACCAALPPHLPRYVMGVGFPVDLVICSFLGADMFDCVYPTRTARFGTAMVRRGGLMQLNQKRYKEDFLPIDKKCECNTCKNYTRAYIHSIVGKETVGCHLVSVHNIKHQLDLMRDVRQAIQSNSVEQFLKQFLYDYYGPIQSENPSKQDSEKMREVPQWVRDAVDHMGYKLDF,not soluble
12,MAHHHHHHMLMHSSTLGSVTYTGMKRRSNAASFSTYLRYSSKVVAPIVRSSPRANMGFKRFAASIAPSDLPAPSTTCISSMKRMMGVGLSRTSFKTLFRRSSNSPRYFAPAIRAPRSREKMREEERVSGTSPRTICCAMPSTMDVLPTPGSPIKTGLFFVRRDRTRMVRNTSSARPISGSSLPSSACRHMSIAYLDNAS,not soluble
13,MGSDKIHHHHHHMISTANITMQFGSKPLFENVSVKFNNGNRYGLIGANGCGKSTFMKILGGDLEPSAGQVMLEPNTRLGKLRQDQFAYEEFTVIDTVIMGHGQLWKVKAERDRIYSLPEMTEEDGMAVAELETEFAEMDGYTAESRAGELLLGLGIPLEQHFGPMSEVAPGWKLRVLLAQALFSDPDVLLLDEPTNHLDINTIRWLETILTARNSTMIIISHDRHFLNSVCTHMADLDYGELRLFPGNYDEYMTAATQSREQLLSDNAKKKAQIAELQTFVSRFSANASKAKQATSRAKQIDKIQLAEVKPSSRVSPFIRFEQAKKLHRQAVVVEKMAKAFDDKVLFKNFDITVEAGERVAIIGPNGIGKTTLLRTLVGEMTPDAGSVKWTDSAEVGYYAQDHAHDFEDDMTLFDWMGQWTSGEQVIRGTLGRMLFSNDEILKSVKVISGGEQGRMLFGKLILQKPNVLVMDEPTNHLDMESIEALNLALENYPGTLLFVSHDREFVSSLATRIIELSADGVVDFSGTYDDYLRSQGVLV,not soluble
14,MSLTDIKMIALGGVREYGKNFYLVEINDSMFILDAGLKYPENEQLGVDLVIPNLDYVIENKGKVQGIFLSHGHADAIGALPYLLAEVSAPVFGSELTIELAKLFVKSNNSTKKFNNFHVVDSDTEIEFKDGLVSFFRTTHSIPESMGIVIGTDKGNIVYTGDFKFDQAAREGYQTDLLRLAEIGKEGVLALLSDSVNATSNDQIASESEVGEEMDSVISDADGRVIVAAVASNLVRIQQVFDSATAHGRRVVLTGTDAENIVRTALRLEKLMITDERLLIKPKDMSKFEDHELIILEAGRMGEPINSLQKMAAGRHRYVQIKEGDLVYIVTTPSTAKEAMVARVENLIYKAGGSVKLITQNLRVSGHANGRDLQLLMNLLKPQYLFPVQGEYRDLAAHAKLAEEVGIFPENIHILKRGDIMVLNDEGFLHEGGVPASDVMIDGNAIGDVGNIVLRDRKVLSEDGIFIVAITVSKKEKRIISKAKVNTRGFVYVKKSHDILRESAELVNTTVGNYLKKDTFDWGELKGNVRDDLSKFLFEQTKRRPAILPVVMEVREGHHHHHH,soluble
15,MGLIKTIGRKPSVQWALSHLASGYLRLVRRTNRFTLEPADAYARLDAFGPFIAAMWHGQHIMISFMSRPQDRVATIISRSPDGNINTMALTRMGVRVMRASGARGRAVKDARAKGGAEGLRAMVKALKGGETVAFSADVPKVSRVCDAGIILLARFSGAPIVPVAVVTSRHIRFNSWDRACLGLPFGRGAMVFGEATFVPREVTPEEVDALRQRVQDELNRVHDRAYTLVGLEHHHHHH,soluble
16,MHHHHHHSSGVDLGTENLYFQSMGFETLVVTSEDGITKIMFNRPKKKNAINTEMYHEIMRALKAASKDDSIITVLTGNGDYYSSGNDLTNFTDIPPGGVEEKAKNNAVLLREFVGCFIDFPKPLIAVVNGPAVGISVTLLGLFDAVYASDRATFHTPFSHLGQSPEGCSSYTFPKIMSPAKATEMLIFGKKLTAGEACAQGLVTEVFPDSTFQKEVWTRLKAFAKLPPNALRISKEVIRKREREKLHAVNAEECNVLQGRWLSDECTNAVVNFLSRKSKL,soluble
17,MAHHHHHHMSRCGRKLDMSSGYWLPRRLLLVRHGESEANVDRALYSKVPDWKIPLTARGREQAFECGRRLRKIIKNEKLYVYYSPYTRTRQTLTEVRKSLLPSQVQGEREDERLREQEIGNFQPLDKMDEMWAERSEFGRSYYRFPDGESSVDVGDRVSKFFDSLFRERVELNYLSARKQMITGSSNDVGPASFTVPDDDDHNVVIISHGLLIRLFVGRWYSAPMEVFETMKNPPNCGIVVLERREAGRLVMTDTSKKLFGSDPLLEMMKFDGKDNVQLFRHLFAEGGYSFSAGEGTDR,soluble
18,MSLSLKIALISQNENLLNLFPKLALEKNFIPITKTASLTRASKIAFGLQDEVDAIISRGATSDYIKKSVSIPSISIKVTRFDTMRAVYNAKRFGNELALIAYKHSIVDKHEIEAMLGVKIKEFLFSSEDEITTLISKVKTENIKIVVSGKTVTDEAIKQGLYGETINSEGHHHHHH,not soluble
